Data taken from PMC7728438.
One block for each substance: values may come before it.

Legend:
[1] = target: PC-1^deltaNT/PC-2_(F604P) heteromer (UniProt P98161)
[2] = target: native heteromeric PC-1/PC-2 polycystin complex of mIMCD-3 primary cilia (mouse (endogenous in mIMCD-3)) (UniProt O08852)
[3] = target: native heteromeric PC-1/PC-2 polycystin complex of mIMCD-3 primary cilia (mouse (endogenous in mIMCD-3)) (UniProt O08852); remark: listed apart in the source
[4] = target: PC-2 F604P (human polycystin-2 with the gain of function mutation F604P) (human) (UniProt Q13563)
Chain of PC-2 F604P (human polycystin-2 with the gain of function mutation F604P) (human) (Q13563 whole entry F604P): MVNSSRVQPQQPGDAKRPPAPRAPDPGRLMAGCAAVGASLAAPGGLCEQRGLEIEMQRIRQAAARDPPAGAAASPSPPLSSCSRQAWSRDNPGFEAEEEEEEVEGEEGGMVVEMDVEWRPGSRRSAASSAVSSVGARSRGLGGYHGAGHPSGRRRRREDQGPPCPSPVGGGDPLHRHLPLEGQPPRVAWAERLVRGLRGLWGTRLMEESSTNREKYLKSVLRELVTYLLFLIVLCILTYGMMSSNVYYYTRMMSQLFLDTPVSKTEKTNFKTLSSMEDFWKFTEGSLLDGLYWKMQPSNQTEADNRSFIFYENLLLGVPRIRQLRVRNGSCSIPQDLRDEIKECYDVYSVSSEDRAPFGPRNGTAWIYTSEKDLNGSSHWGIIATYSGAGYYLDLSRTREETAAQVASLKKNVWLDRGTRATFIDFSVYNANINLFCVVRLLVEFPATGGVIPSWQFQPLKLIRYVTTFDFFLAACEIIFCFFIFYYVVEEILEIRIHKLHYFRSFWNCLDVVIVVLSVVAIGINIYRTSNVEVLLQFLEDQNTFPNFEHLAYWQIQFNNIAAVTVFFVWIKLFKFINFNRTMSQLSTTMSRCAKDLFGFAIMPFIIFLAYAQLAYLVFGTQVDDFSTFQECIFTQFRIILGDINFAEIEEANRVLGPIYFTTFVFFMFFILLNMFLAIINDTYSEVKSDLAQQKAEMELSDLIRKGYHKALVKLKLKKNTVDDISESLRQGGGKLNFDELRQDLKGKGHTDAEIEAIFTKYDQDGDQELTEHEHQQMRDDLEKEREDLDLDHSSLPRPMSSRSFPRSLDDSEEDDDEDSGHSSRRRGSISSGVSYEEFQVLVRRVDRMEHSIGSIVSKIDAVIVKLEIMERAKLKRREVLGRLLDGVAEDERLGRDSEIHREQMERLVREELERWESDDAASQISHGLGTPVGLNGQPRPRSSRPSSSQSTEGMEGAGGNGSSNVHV

Chain of PC-1 N-terminal fragment NTF^263-535 (P98161 263-535): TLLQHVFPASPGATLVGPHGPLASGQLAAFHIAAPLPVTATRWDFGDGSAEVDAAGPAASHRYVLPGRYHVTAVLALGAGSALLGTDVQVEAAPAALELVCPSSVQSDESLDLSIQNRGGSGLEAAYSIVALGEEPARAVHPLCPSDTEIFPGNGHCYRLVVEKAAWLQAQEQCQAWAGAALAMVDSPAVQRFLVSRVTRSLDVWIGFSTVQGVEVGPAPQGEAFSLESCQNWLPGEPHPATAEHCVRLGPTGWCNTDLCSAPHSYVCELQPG
Chain of PC-1^deltaNT/PC-2_(F604P) heteromer (P98161 other isoform, or with tags, fused parts or gaps F604P | F604P, chain 1 of 2): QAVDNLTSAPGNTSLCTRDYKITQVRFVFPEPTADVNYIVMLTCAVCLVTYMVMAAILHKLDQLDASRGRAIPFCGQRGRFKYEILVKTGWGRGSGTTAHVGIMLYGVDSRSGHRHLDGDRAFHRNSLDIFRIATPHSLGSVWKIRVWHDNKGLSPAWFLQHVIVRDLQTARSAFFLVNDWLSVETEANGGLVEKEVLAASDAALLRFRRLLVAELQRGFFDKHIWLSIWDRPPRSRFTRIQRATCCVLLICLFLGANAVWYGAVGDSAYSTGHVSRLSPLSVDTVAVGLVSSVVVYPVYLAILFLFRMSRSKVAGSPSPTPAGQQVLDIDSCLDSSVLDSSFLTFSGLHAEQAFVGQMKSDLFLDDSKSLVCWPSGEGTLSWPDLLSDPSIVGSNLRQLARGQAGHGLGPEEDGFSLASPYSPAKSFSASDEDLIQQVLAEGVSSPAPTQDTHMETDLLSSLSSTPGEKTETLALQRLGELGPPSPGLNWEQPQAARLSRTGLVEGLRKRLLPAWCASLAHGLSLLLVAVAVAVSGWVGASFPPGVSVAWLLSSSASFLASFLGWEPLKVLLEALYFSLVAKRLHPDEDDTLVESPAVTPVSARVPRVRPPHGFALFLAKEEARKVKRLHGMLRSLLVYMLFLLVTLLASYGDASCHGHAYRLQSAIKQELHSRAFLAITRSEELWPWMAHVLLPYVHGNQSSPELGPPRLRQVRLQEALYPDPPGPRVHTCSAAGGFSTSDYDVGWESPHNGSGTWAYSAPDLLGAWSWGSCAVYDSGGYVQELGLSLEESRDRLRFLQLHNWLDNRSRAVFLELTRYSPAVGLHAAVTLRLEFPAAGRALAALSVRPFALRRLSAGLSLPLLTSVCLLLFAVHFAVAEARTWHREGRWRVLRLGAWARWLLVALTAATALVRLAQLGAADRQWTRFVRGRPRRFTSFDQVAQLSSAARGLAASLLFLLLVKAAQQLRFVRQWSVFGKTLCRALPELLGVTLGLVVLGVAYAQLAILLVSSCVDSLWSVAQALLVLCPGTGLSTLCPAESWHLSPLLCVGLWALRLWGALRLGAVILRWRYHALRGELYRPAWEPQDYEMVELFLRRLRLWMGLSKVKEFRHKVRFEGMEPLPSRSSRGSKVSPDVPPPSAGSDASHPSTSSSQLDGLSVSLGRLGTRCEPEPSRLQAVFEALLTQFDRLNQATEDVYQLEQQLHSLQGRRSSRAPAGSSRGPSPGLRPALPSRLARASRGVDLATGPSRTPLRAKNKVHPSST
Chain of PC-1^deltaNT/PC-2_(F604P) heteromer (Q13563 whole entry F604P, chain 2 of 2, further chain): as the sequence (Q13563 whole entry F604P) above
Chain of PC-1 N-terminal fragment NTF^24-852 (P98161 24-852): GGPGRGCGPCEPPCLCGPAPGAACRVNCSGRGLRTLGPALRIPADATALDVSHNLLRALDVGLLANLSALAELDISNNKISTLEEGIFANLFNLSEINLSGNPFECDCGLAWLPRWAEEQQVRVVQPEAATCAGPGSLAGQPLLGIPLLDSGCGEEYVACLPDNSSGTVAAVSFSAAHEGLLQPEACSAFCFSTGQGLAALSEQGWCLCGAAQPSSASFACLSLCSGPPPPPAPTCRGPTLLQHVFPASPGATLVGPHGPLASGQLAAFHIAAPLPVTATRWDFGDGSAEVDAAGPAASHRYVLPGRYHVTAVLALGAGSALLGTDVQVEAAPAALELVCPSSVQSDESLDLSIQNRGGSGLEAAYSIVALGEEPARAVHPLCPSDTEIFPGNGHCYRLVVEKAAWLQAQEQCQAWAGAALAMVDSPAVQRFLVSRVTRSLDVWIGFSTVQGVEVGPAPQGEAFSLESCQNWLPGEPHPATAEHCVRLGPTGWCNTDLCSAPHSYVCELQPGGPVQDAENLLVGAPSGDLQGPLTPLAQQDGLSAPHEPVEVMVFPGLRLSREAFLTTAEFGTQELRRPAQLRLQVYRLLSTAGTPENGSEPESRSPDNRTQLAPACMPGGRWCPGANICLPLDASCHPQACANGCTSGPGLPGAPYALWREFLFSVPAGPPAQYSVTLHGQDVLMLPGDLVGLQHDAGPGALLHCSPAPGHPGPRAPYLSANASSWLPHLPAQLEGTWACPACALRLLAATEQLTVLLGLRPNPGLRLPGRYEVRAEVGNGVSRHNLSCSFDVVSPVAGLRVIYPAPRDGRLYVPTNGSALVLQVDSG

outward whole-cell currents of HEK293 cells expressing PC-1deltaNT/PC-2 F604P with the fragment in the bath solution [1]: 65.5 pA/pF
Substance: PC-1 N-terminal fragment NTF^24-852 (from UniProt P98161 24-852) (domain or fragment)

spike-like elevations of ciliary Ca2+ (Arl13b-mScarlet-GCaMP6s, TIRF microscopy) in mIMCD-3 cells after the fragment; none in untreated cells, with boiled fragment or in PC-2 knockout cells [2]: > 0.35 ΔF/F
probability of single channel openings at negative membrane potentials, excised inside-out patches of mIMCD-3 primary cilia, 0.7 ug/mL (~50 nM) fragment in the pipette [3]: 5 fold
outward whole-cell currents of HEK293 cells expressing PC-1deltaNT/PC-2 F604P with the fragment in the bath solution (boiled fragment inactive) [1]: 61.4 pA/pF
Substance: PC-1 N-terminal fragment NTF^263-535 (from UniProt P98161 263-535) (domain or fragment)

relative open probability at -100 mV, whole-cell patch clamp, HEK293 cells [4]: 0.1
whole-cell patch clamp current density at +100 mV, HEK293 cells co-expressing sPC-1 and PC-2 F604P (PC-2 F604P alone gave negligible currents) [4]: 123 pA/pF
Substance: sPC-1 (human polycystin-1 with Ig kappa-chain secretion sequence and HA tag in place of its own signal peptide) (from UniProt P98161 24-4303) (receptor)

relative open probability at -100 mV, whole-cell patch clamp, HEK293 cells [4]: 0.3
whole-cell patch clamp current density at +180 mV, HEK293 cells co-expressing sPC-1pore and PC-2 F604P [4]: 71.1 pA/pF
Substance: sPC-1_(pore) (sPC-1 with R4100G, R4107G and H4111G) (from UniProt P98161 24-4303) (receptor)
